Test results as given in patent publication US20060122119A1, “Peptides for use in antitumor immunotherapy” (Institut Nat'l De La Sante Et De La Recherche Med., priority 2002, published 2006).

What was measured:
HLA-B*3501 (human) [1] = details: remark: other sources report otherwise
HLA-B*3501 (human) [2] = details: remark: other sources report otherwise; remark: listed apart in the source

B1: MAGE-A3 peptide 168-176 … (peptide)
peptide: EVDPIGHLY
- Stability (half-life of the peptide on HLA-B*35) (HLA-B*3501 (human) [1]): > 6 h
- RA (relative affinity) (HLA-B*3501 (human) [2]): 2.3
